Series [1] addresses T1, human Ramos lymphoma cells (CD39) (Homo sapiens, UniProt P49961).
T1 construct: host or cells: Ramos human lymphoma cells
T1 sequence (P49961 1-510): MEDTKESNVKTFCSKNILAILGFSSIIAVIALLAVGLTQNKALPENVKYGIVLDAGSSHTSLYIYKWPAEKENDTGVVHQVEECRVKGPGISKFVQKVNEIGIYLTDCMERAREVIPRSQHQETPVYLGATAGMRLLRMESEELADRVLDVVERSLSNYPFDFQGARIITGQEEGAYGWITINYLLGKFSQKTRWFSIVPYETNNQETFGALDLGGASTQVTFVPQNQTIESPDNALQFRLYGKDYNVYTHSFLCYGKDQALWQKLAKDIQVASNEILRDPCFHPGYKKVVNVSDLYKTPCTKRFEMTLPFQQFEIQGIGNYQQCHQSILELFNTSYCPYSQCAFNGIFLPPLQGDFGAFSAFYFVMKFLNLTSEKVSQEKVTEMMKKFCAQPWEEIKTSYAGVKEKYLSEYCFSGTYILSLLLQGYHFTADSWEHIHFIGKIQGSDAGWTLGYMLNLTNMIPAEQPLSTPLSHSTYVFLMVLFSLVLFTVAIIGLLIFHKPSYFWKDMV
Kind of series: Antibody titration on Ramos cells by flow cytometry. The series is classed as binding. Conditions: result in words. Here is the method: Antibody I-394 was tested in two repeated experiments for binding to CHO cells expressing human CD39, CHO cells expressing cynomolgus (Macaca fascicularis) CD39, CHO cells expressing murine CD39, and human Ramos lymphoma cells (ATCC™, reference CRL-1596). Cells were incubated with various concentration of unlabeled anti-CD39 antibody from 30 μg/ml to 5×10^−4 μg/ml, for 30 minutes at 4° C. After washes, cells were incubated with Goat anti-mouse H+L labeled secondary antibody for 30 min at 4° C.
On the technique in general: A flow cytometer gives signals particle by particle.

Series [2] has as its target T2, CD39 mutants transfected in Hek-293T cells (Homo sapiens, UniProt P49961, E142K/M139A/R138A).
T2 construct: expressed in transfected cells; host or cells: HEK-293T cells
T2 sequence (P49961 1-510 R138A/M139A/E142K): T1 sequence (P49961 1-510) with R138A, M139A, E142K
Description: Epitope mapping: binding to CD39 mutants by flow cytometry. Conditions: mutant 19: R138A, M139A, E142K; vs wild-type CD39. Here is the method: CD39 mutants were generated by PCR. The sequences amplified were run on agarose gel and purified using the Macherey Nagel PCR Clean-Up Gel Extraction kit (reference 740609). The purified PCR products generated for each mutant were then ligated into an expression vector, with the ClonTech InFusion system. The vectors containing the mutated sequences were prepared as Miniprep and sequenced. After sequencing, the vectors containing the mutated sequences were prepared as Midiprep using the Promega PureYield™ Plasmid Midiprep System. HEK293T cells were grown in DMEM medium (Invitrogen), transfected with vectors using Invitrogen's Lipofectamine 2000 and incubated at 37° C. in a CO2 incubator for 48 hours prior to testing for transgene expression. The targeted amino acid mutations in the table 1 below are shown using numbering of SEQ ID NO: 1.
In order to define the epitopes of anti-CD39 antibodies, we designed CD39 mutants defined by substitutions of amino acids exposed at the molecular surface over the surface of CD39. Mutants were transfected in Hek-293T cells, as shown in the table 1, using numbering of SEQ ID NO: 1.
Dose-ranges of I-394 (10-2.5-0.625-0.1563-0.0391-0.0098-0.0024-0.0006 μg/ml) are tested on the 20 generated mutants by flow cytometry. […] Mutant 5 contains amino acid substitutions at residues Q96, N99, E143 and R147.
Mutants were transfected in Hek-293T cells, as shown in the table 1, using numbering of SEQ ID NO: 1. Dose-ranges of antibodies I-394 were tested on the 20 mutants by flow cytometry. […] Mutant 19 includes substitutions at residues R138, M139 and E142. The core epitope of I-394 thus includes one or more (or all of) residues R138, M139 and E142.
Mutants were transfected in Hek-293T cells, as shown in the table 1, using numbering of SEQ ID NO: 1.Dose-ranges of test antibodies (10-2.5-0.625-0.1563-0.0391-0.0098-0.0024-0.0006 μg/ml) are tested on the 20 generated mutants by flow cytometry.

Series [3] has as its system cynomolgus CD39-expressing CHO cells (CHO-cyCD39). Kind of series: Inhibition of the enzymatic activity of cellular CD39 in CHO-cyCD39. It counts as cell-based, cynomolgus (Macaca fascicularis). The settings on record: result in words. On the procedure:
The inhibition of the CD39 enzymatic activity in CD39-expressing cells by antibodies was evaluated using Cell Titer Glo™ (Promega, reference G7571) that allows assessment of ATP hydrolysis through use of a reagent that generates a luminescent signal proportional to the amount of ATP present. The assay was thus designed to permit assessment of the inhibition of ATP hydrolyzed by CD39 in the cell culture supernatant. Briefly, 5×10^4 Ramos human lymphoma cells, 5×10^3 human CD39-, cynomolgus CD39- and mouse CD39-expressing CHO cells, were incubated 1 hour at 37° C. with anti-CD39 antibodies from 30 μg/ml to […]. Cells were then incubated with 20 μM ATP for 1 additional hour at 37° C. Plates were centrifuged for 2 min at 400 g and 50 μl cell supernatant are transferred in a luminescence microplate (white wells). 50 μl CellTiter-Glo® Reagent (CTG) was added to the supernatant and emitted light was quantified after a 5 min incubation in the dark using a Enspire™ luminometer. Anti-CD39 antibody efficacy was determined by comparing emitted light in presence of antibody with ATP alone (maximal light emission) and ATP together with cells (minimal light emission).
The inhibition by antibody I-394 of the ATPase activity of CD39 in CD39-expressing cells was evaluated using the assay used for inhibition of the enzymatic activity of cellular CD39 as described above (Methods).

Changes are numbered by the printed parent chain.

Regarding “I-394: anti-CD39 antibody, VH SEQ ID NO: 6, VL SEQ ID NO: 7; human IgG1 Fc with L234A/L235E/G237A/A330S/P331S”, in series [1], the “binding to Ramos lymphoma cells” value is “bound”. In addition, the “binding to cells expressing mutant 19 of CD39” value in series [2] was “complete loss of binding”. The “blocking CD39 enzymatic activity in CHO-cyCD39” value in series [3] is “blocks”.

The values are drawn from patent publication US11578136B2, “Compositions and methods for treating cancer” (INNATE PHARMA, priority 2017, dated 2023).
